The values below come from patent US5208158A, “Oxidation stable detergent enzymes” (Novo Nordisk A/S, priority 1990, dated 1993).

Holding throughout (format): biochemical
The target of series [1] is T1, Subtilisin-309 variant Subtilisin-309-M222C (Lederbergia lenta, UniProt P29600, M216C).
T1 construct: made in house
T1 sequence (P29600 1-269 M216C): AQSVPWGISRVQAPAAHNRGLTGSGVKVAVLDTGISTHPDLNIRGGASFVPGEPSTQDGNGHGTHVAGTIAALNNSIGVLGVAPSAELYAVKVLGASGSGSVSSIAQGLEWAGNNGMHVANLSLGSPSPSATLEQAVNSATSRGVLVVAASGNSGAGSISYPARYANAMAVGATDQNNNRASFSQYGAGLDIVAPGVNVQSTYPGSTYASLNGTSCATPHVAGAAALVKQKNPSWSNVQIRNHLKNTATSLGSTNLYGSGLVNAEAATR
The series can be described thus: Titration of the enzyme with phenyl-Hg-Cl. The following applies: ratio phenyl-Hg-Cl/enzyme exceeds 1. From the text: (§1) As a further control, the enzyme was titrated with phenyl-Hg-Cl. When subtilisin-309-M222C is modified with phenyl-Hg-Cl, the activity decreases. When the ratio phenyl-Hg-Cl/WT exceeds 1, the activity constantly remains 10% of the activity of the non-modified enzyme, corresponding to 1 group per enzyme being modified.

The target in series [2] is T2, Subtilisin-309 variant Subtilisin-309-M222C-SM (M222C chemically modified with MMTS) (Lederbergia lenta, UniProt P29600, M216C).
T2 construct: made in house
T2 sequence (P29600 1-269 M216C): T1 sequence (P29600 1-269 M216C)
The series can be described thus: Titration of the enzyme with phenyl-Hg-Cl. Particulars: excess of phenyl-Hg-Cl relative to enzyme of 2.5.
Excerpt: as §1

Substrate in series [3]: C[C@H](NC(=O)CCC(=O)O)C(=O)N[C@@H](C)C(=O)N1CCC[C@H]1C(=O)N[C@@H](Cc1ccccc1)C(=O)Nc1ccc([N+](=O)[O-])cc1
Briefly: Kinetic characterization, cleavage of Suc-Ala-Ala-Pro-Phe-pNA monitored at 410 nm. Particulars: other: 50 mM Bicine, 2 mM CaCl2, 0.1 M KCl, pH 8.5, 25° C., substrate 0.2 to 6.5 mM. The method, then:
The proteolytic activity can be monitored spectrophotometrically at 25° C., following the degradation of the peptide substrates Suc-Ala-Ala-Pro-Phe-pNA (Suc=Succinyl and pNA=p-nitro-anilid) or DMC (dimethyl-casein), and subsequent calculation of the kinetic parameters kcat. and KM.
For kinetic characterization, the savinase enzymes were assayed in:
50 μl X mM Suc-Ala-Ala-Pro-Phe-pNA in DMF
wherein the cleavage of substrate between Phe and pNA (p-nitro-anilid) is monitored spectrophotometrically at 410 nm, Δε=8500M^-1 cm^-1. The enzymatic concentrations are determined from the absorption at 280 nm, using Δε28 determined from the amino acid composition, Δε280 =23217M^-1 cm^-1.
The kinetic parameters kcat and KM are determined from a direct fit of the initial velocities at 7 concentrations of substrate to the Michaelis Menten equation. The […], X, is varied from 4 to 131 mM, so that the concentration of the substrate in assay varies from 0.2 to 6.5 mM. Thus selected around the KM value of the enzymes.

The Km is the substrate concentration at which the rate is half of its maximum. The term kcat denotes the number of substrate molecules converted per active site and unit of time at saturation.

Changes are numbered by the printed parent chain. Names may count otherwise.

Consider `[Cl][Hg][c]1ccccc1` [phenyl-Hg-Cl], for which the “activity remaining, of the activity of the non-modified enzyme” value in series [1] was 10%. For the same molecule, the “activity change on reaction with phenyl-Hg-Cl” value in series [2] is reported as “no activity change is observed”.

B1: Subtilisin-309 (wild type) (Lederbergia lenta) (protein)
chain: T1 sequence (P29600 1-269 M216C) with C216M
Turning to B1, in series [3], the Km came to 1760 µM, the kcat was 91.2 ± 1.0 s⁻¹ and the kcat/Km worked out at 52 S^-1 mM^-1.

B2: Subtilisin-309 variant Subtilisin-309-M222C (Lederbergia lenta; M216C) (protein)
chain: T1 sequence (P29600 1-269 M216C)
notes: made in house
For B2, in series [3], the Km was found to be 1820 µM, the kcat was found to be 43.2 ± 0.03 s⁻¹ and the kcat/Km is recorded as 23.8 S^-1 mM^-1.
